Assays:
Aβ1-40 monomer = assay: solution-phase equilibrium titration, free antibody read by ELISA on ADDL-coated plate, GRAFIT fit
Aβ1-20 peptide = assay: as above
[1] = target: amyloid β-derived diffusible ligands (ADDLs), oligomers of Aβ1-42; assay: as above
[2] = target: fibrillar Aβ (Aβ1-42 fibrils); assay: as above
biotinylated ADDLs [3] = assay: ELISA on coated antigen, chemiluminescence; antibody stored 1 month at 40°
biotinylated ADDLs [4] = assay: ELISA on coated antigen, chemiluminescence; antibody stored 1 month at 25°
Aβ1-42 monomer = assay: ELISA, IgG2 antibodies
biotinylated ADDLs [5] = assay: ELISA on coated antigen, chemiluminescence; antibody at 0 timepoint
biotinylated ADDLs [6] = assay: ELISA on coated antigen, chemiluminescence; antibody stored 1 month at 4°

Sequence of Aβ1-20 peptide (peptide, as listed by the source): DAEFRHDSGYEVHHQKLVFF

Row | Substance | Kd (Aβ1-40 monomer) [nM] | Kd (Aβ1-20 peptide) [nM] | Kd [1] [nM] | Kd [2] [nM] | EC50 (biotinylated ADDLs [3]) [nM] | EC50 (biotinylated ADDLs [4]) [nM] | EC50 (Aβ1-42 monomer) [nM] | EC50 (biotinylated ADDLs [5]) [nM] | EC50 (biotinylated ADDLs [6]) [nM]
1 | WO-2 (antibody) | 6.15 | 19.3 | 0.57 | 1.15 |  |  |  |  | 
2 | anti-ADDL antibody 19.3 |  |  |  |  | 5.9 | 2.1 | 18 | 1.1 | 1.7

Reference: patent US20130130288A1
